Measured values reported in patent publication US20180230200A1 (CITY OF HOPE, published 2018).

Experiments:
[1] = biological target: T1, gH/gL/UL128/UL130/UL131A pentamer complex expressed from MVA-PC in BHK-21 cells (human cytomegalovirus, UniProt P12824 24-743; P16832 31-278; P16837 28-171; P16772 1-214; F5HET4 19-129); assay: FC competition, MVA-PC BHK-21; unlabelled row Ab; competitor: biotinylated 13B5
T1 construct: whole, on cells

[2] = biological target: T1, gH/gL/UL128/UL130/UL131A pentamer …; assay: FC, biotinylated NAb titrated on MVA-PC-infected BHK-21 (cell surface PC)
[3] = biological target: T1, gH/gL/UL128/UL130/UL131A pentamer …; assay: FC competition, MVA-PC BHK-21; unlabelled row Ab; competitor: biotinylated 12E2
[4] = biological target: T1, gH/gL/UL128/UL130/UL131A pentamer …; assay: FC competition, MVA-PC BHK-21; unlabelled row Ab; competitor: biotinylated 54E11
[5] = biological target: T1, gH/gL/UL128/UL130/UL131A pentamer …; assay: FC competition, MVA-PC BHK-21; unlabelled row Ab; competitor: biotinylated 1B2
[6] = biological target: gH/gL/UL128/UL130/UL131A pentamer complex (PC) of HCMV strain TR virus (human cytomegalovirus strain TR); assay: cell-based or functional assay
[7] = biological target: gH/gL/UL128/UL130/UL131A pentamer complex (PC) of HCMV strain TB40/E virus (human cytomegalovirus strain TB40/E); assay: cell-based or functional assay
[8] = biological target: T2, gH/gL/UL131A co-expressed from MVA in BHK-21 cells (human cytomegalovirus, UniProt P12824 24-743; P16832 31-278; F5HET4 19-129); assay: intracellular FC, MVA-infected BHK-21
T2 construct: whole, on cells
Protocol: (§1) NAb subunit specificity was evaluated by staining BHK-21 cells infected with different MVA recombinants. One or more vectors were used to co-infect BHK-21 at an MOI of 5. […] Four hours post infection cells were fixed and permeabilized using Cytofix/Cytoperm solution (BD Biosciences). NAbs (1 mg/ml) were diluted 1:500 in perm/wash buffer (BD) and added to the cells for 1 hour at 4° C. […] Cells were washed again and resuspended in PBS/0.1% BSA. Fifteen thousand events were collected using the Gallios Flow Cytometer (Beckman Coulter, Miami, Fla., USA) and analyzed with FlowJo Software (Tree Star, Ashland, Oreg., USA). Uninfected cells and cells infected with MVA-Venus were used as controls. GFP expression was analyzed for confirming MVA infection since all the constructs contain a GFP expression cassette (36, 62).
(§2) In order to determine the antigen specificity of the vaccine-derived NAbs, intracellular flow cytometry (FC) staining of permeabilized BHK-21 cells infected with MVA expressing single subunits or combinations of two or more subunits of the PC was evaluated.

[9] = biological target: T3, gH expressed from MVA in BHK-21 cells (human cytomegalovirus, UniProt P12824 24-743); assay: intracellular FC, MVA-infected BHK-21
T3 construct: whole, on cells
Protocol: as §1, §2

[10] = biological target: T4, UL131A expressed from MVA in BHK-21 cells (human cytomegalovirus, UniProt F5HET4 19-129); assay: intracellular FC, MVA-infected BHK-21
T4 construct: whole, on cells
Protocol: as §1, §2

[11] = biological target: T5, gH/gL/UL130 co-expressed from MVA in BHK-21 cells (human cytomegalovirus, UniProt P12824 24-743; P16832 31-278; P16772 1-214); assay: intracellular FC, MVA-infected BHK-21
T5 construct: whole, on cells
Protocol: as §1, §2

[12] = biological target: T6, gH/gL co-expressed from MVA in BHK-21 cells (human cytomegalovirus, UniProt P12824 24-743; P16832 31-278); assay: intracellular FC, MVA-infected BHK-21
T6 construct: whole, on cells
Protocol: as §1, §2

[13] = biological target: T7, gH/gL/UL130/UL131A co-expressed from MVA in BHK-21 cells (human cytomegalovirus, UniProt P12824 24-743; P16832 31-278; P16772 1-214; F5HET4 19-129); assay: intracellular FC, MVA-infected BHK-21
T7 construct: whole, on cells
Protocol: as §1, §2

[14] = biological target: T8, UL130/UL131A co-expressed from MVA in BHK-21 cells (human cytomegalovirus, UniProt P16772 1-214; F5HET4 19-129); assay: intracellular FC, MVA-infected BHK-21
T8 construct: whole, on cells
Protocol: as §1, §2

[15] = biological target: T9, UL130 expressed from MVA in BHK-21 cells (human cytomegalovirus, UniProt P16772 1-214); assay: intracellular FC, MVA-infected BHK-21
T9 construct: whole, on cells
Protocol: as §1, §2

[16] = biological target: T1, gH/gL/UL128/UL130/UL131A pentamer …; assay: FC competition, MVA-PC BHK-21; unlabelled row Ab; competitor: biotinylated 21F6
[17] = biological target: T1, gH/gL/UL128/UL130/UL131A pentamer …; assay: FC competition, MVA-PC BHK-21; unlabelled row Ab; competitor: biotinylated 18F10
KLH-K15M = biological target: T10, KLH-K15M (human cytomegalovirus); assay: ELISA with KLH-coupled peptides (FIG. 11A)
T10 peptide: KHKRLDVCRAKMGYM

KLH-K14CS = biological target: T11, KLH-K14CS; assay: ELISA with KLH-coupled peptides (FIG. 11A)
T11 peptide: KRLDVSRAKMGYMC

KLH-K16CS = biological target: T12, KLH-K16CS; assay: ELISA with KLH-coupled peptides (FIG. 11A)
T12 peptide: KHKRLDVSRAKMGYMC

B1: 13B5 (antibody, V domains shown)
VH: QVTLKESGPGILKPSQTLSLTCSFSGFSLTTSGLGVGWIRQPSGKGLEWLAHIWWDDDKYFNPSLRNQLTISKDTSRNQVFLEITSVTTADTATYYCVRSLYDYDEGYYFDSWGQGTTLTVSS
VL: EIVMIQSPATLSVNPGDRVSLSCRASQSISDYLHWYQQKSHESPRLLIKYASQSISGIPSRFSGSGSGSDFTLSINSVEPEDVGVYYCQNGHTFPPTFGGGTKLEIK
notes: also called NAb 13B5; 1365
Binding Inhibition (%) [1]: 100%
EC50 [2]: 0.68 nM
Binding Inhibition (%) [3]: 0%
Binding Inhibition (%) [4]: 0%
Binding Inhibition (%) [5]: 0%
IC50, inhibition of TR cell-to-cell spread in ARPE-19 [6]: 21 µg/mL
IC50, neutralization of TR infection of ARPE-19 [6]: 19.9 ng/mL
IC50, neutralization of TR infection of HUVEC [6]: 7.7 ng/mL
IC50, neutralization of TR infection of MRC-5 [6]: > 25000 ng/mL
IC50, inhibition of TB40/E cell-to-cell spread in ARPE-19 [7]: 22 µg/mL
IC50, neutralization of TB40/E infection of ARPE-19 [7]: 15 ng/mL
IC50, neutralization of TB40/E infection of CTB [7]: 99.8 ng/mL
IC50, neutralization of TB40/E infection of HUVEC [7]: 12 ng/mL
IC50, neutralization of TB40/E infection of MRC-5 [7]: > 25000 ng/mL
binding result [8]: no binding
binding result [9]: no binding
binding result [10]: no binding
binding result [11]: no binding
binding result [12]: no binding
binding result [13]: no binding
binding result [14]: no binding
binding result [15]: no binding
Binding Inhibition (%) [16]: 0%
Binding Inhibition (%) [17]: 0%
binding result (KLH-K15M): binds
binding result (KLH-K14CS): binds
binding result (KLH-K16CS): binds
